# Results: patent US20230059341A1 (TESARO, published 2023)
# Like-named read-outs stand apart in the source and are kept apart here.
# What was measured:
# [1] = target: T1, Neonatal Fc Receptor (FcRn) (UniProt P55899 24-297; P61769 21-119, limits assumed); assay: FcRn binding assay, BIACORE (SPR)
# [2] = target: T2, PD-1 protein constitutively expressed on engineered CHO K1 cells (UniProt Q15116 25-288, limits assumed); assay: MSD potency assay: competitive binding on CHO K1 cells expressing PD-1, inhibition of PD-L1-mFc binding, ECL; percent of reference material
# T2 construct: whole, on cells; also called programmed cell death protein 1
# T2 sequence (Q15116 25-288 limits assumed, change not shown): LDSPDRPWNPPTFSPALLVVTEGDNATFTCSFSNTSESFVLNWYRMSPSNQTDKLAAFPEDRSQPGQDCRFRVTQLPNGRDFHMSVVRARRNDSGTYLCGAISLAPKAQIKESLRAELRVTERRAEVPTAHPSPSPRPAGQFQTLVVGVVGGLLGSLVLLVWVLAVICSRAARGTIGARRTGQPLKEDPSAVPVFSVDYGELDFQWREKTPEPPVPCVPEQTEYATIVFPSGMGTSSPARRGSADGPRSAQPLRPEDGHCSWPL
# Method: (§1) The Meso Scale Discovery (MSD) potency assay employs engineered CHO K1 cells constitutively expressing the PD-1 protein. […] The readout is measured using a specific detection antibody mixture that releases an electrochemiluminescence (ECL) signal that can be quantified.
# [3] = target: T3, human PD-1 on PD-1 effector cells (Jurkat T cells, Promega #J1155) (human, UniProt Q15116 25-288); assay: cell-based or functional assay
# T3 sequence (Q15116 25-288): as the sequence (Q15116 25-288 limits assumed, change not shown) above
# [4] = target: T3, human PD-1 on PD-1 effector cells …; assay: cell-based or functional assay; remark: listed apart in the source
# [5] = target: T3, human PD-1 on PD-1 effector cells …; assay: cell-based or functional assay; remark: listed apart in the source
# [6] = target: T1, Neonatal Fc Receptor (FcRn); assay: FcRn binding assay, BIACORE (SPR); remark: listed apart in the source
# [7] = target: T2, PD-1 protein constitutively expressed …; assay: MSD potency assay: competitive binding on CHO K1 cells expressing PD-1, inhibition of PD-L1-mFc binding, ECL; percent of reference material; remark: listed apart in the source
# Method: as §1
# [8] = target: T1, Neonatal Fc Receptor (FcRn); assay: BIACORE (SPR), antibody immobilized on sensor chip, FcRn injected as analyte
# Method: FcRn binding was assessed via BIACORE analysis. […] Various concentrations of analyte (FcRn) were injected for analysis of the association and dissociation properties.
# [9] = target: T1, Neonatal Fc Receptor (FcRn); assay: FcRn binding assay, BIACORE (SPR); remark: listed apart in the source
# [10] = target: T2, PD-1 protein constitutively expressed …; assay: MSD potency assay: competitive binding on CHO K1 cells expressing PD-1, inhibition of PD-L1-mFc binding, ECL; percent of reference material; remark: listed apart in the source
# Method: as §1
# [11] = target: T3, human PD-1 on PD-1 effector cells …; assay: cell-based or functional assay; remark: listed apart in the source
# [12] = target: T1, Neonatal Fc Receptor (FcRn); assay: FcRn binding assay, BIACORE (SPR); remark: listed apart in the source
# [13] = target: T3, human PD-1 on PD-1 effector cells …; assay: cell-based or functional assay; remark: listed apart in the source
# [14] = target: T2, PD-1 protein constitutively expressed …; assay: MSD potency assay: competitive binding on CHO K1 cells expressing PD-1, inhibition of PD-L1-mFc binding, ECL; percent of reference material; remark: listed apart in the source
# Method: as §1
# T1 sequence (P55899 24-297 limits assumed, chain 1 of 2): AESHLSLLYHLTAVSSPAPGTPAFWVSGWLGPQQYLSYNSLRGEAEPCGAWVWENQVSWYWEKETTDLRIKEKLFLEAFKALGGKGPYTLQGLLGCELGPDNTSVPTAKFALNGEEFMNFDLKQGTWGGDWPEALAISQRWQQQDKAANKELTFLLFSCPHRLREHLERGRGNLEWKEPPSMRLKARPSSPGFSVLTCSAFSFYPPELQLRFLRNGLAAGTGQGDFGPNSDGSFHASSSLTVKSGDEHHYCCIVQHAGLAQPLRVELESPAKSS
# T1 sequence (P61769 21-119 limits assumed, chain 2 of 2): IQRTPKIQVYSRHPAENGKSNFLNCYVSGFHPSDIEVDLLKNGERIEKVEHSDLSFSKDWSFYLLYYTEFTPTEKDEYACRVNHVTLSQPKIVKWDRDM
binder,measurement,setting,value
"Dostarlimab, H2O2 treated, 25° C., 2 weeks (antibody, human IgG4 S228P, kappa, percent of population: Trp 50 oxidation 1.3; Asn 137 deamidation 1.3; percent of population: Met 34 oxidation 28.8; Met 83 oxidation 1.1; Met 103 oxidation 86.1; Met 248 oxidation 99.6; Asn 311 deamidation 7.4; Met 354 oxidation 99.8; Asn 380 deamidation 10.5; Asn 385 deamidation 1.9; Met 424 oxidation 98.1; Lys 443 clipped 97.7, 0.1% (v:v) H2O2; also called H2O2, 25° C., 2 weeks) heavy: not shown light: DIQLTQSPSFLSAYVGDRVTITCKASQDVGTAVAWYQQKPGKAPKLLIYWASTLHTGVPSRFSGSGSGTEFTLTISSLQPEDFATYYCQHYSSYPWTFGQGTKLEIKRTVAAPSVFIFPPSDEQLKSGTASVVCLLNNFYPREAKVQWKVDNALQSGNSQESVTEQDSKDSTYSLSSTLTLSKADYEKHKVYACEVTHQGLSSPVTKSFNRGEC",Kd,[1],12400 nM
same,"Relative Potency, MSD Binding",[2],74%
same,"Relative Potency, Cell-Based Bioassay",[3],47%
"Dostarlimab, acid degraded, pH 4.0, 25° C., 3 weeks (antibody, human IgG4 S228P, kappa, percent of population: Asn 137 deamidation 1.2; percent of population: Met 248 oxidation 3.1; Asp 261/266/276 isomerization 3.0; Asn 311 deamidation 7.2; Asn 380 deamidation 9.7; Asn 385 deamidation 1.8; Asp 395/397/409 isomerization 2.7; Asn 430 deamidation 1.0; Lys 443 clipped 97.0, Mixture; HMW 15.2%, basic peaks 34.1%; also called Acid Hydrolysis) heavy: not shown light: DIQLTQSPSFLSAYVGDRVTITCKASQDVGTAVAWYQQKPGKAPKLLIYWASTLHTGVPSRFSGSGSGTEFTLTISSLQPEDFATYYCQHYSSYPWTFGQGTKLEIKRTVAAPSVFIFPPSDEQLKSGTASVVCLLNNFYPREAKVQWKVDNALQSGNSQESVTEQDSKDSTYSLSSTLTLSKADYEKHKVYACEVTHQGLSSPVTKSFNRGEC","Relative Potency, Cell-Based Bioassay",[4],125%
same,Relative Potency (Potency by cell-based bioassay),[5],125%
same,Kd,[6],1980 nM
same,"Relative Potency, MSD Binding",[7],88%
"Dostarlimab reference material (antibody, human IgG4 S228P, kappa) heavy: not shown light: DIQLTQSPSFLSAYVGDRVTITCKASQDVGTAVAWYQQKPGKAPKLLIYWASTLHTGVPSRFSGSGSGTEFTLTISSLQPEDFATYYCQHYSSYPWTFGQGTKLEIKRTVAAPSVFIFPPSDEQLKSGTASVVCLLNNFYPREAKVQWKVDNALQSGNSQESVTEQDSKDSTYSLSSTLTLSKADYEKHKVYACEVTHQGLSSPVTKSFNRGEC",Kd,[8],1690 nM
"Dostarlimab (antibody, human IgG4 S228P, kappa, N-glycan at Asn 293 (99% occupancy), also called dostarlimab drug substance (DS); anti-PD-1 antibody) heavy: not shown light: DIQLTQSPSFLSAYVGDRVTITCKASQDVGTAVAWYQQKPGKAPKLLIYWASTLHTGVPSRFSGSGSGTEFTLTISSLQPEDFATYYCQHYSSYPWTFGQGTKLEIKRTVAAPSVFIFPPSDEQLKSGTASVVCLLNNFYPREAKVQWKVDNALQSGNSQESVTEQDSKDSTYSLSSTLTLSKADYEKHKVYACEVTHQGLSSPVTKSFNRGEC",Kd,[8],1750 nM
"Dostarlimab, acid degraded, T0 (exposed to pH 4.0, no incubation) (antibody, human IgG4 S228P, kappa, percent of population: Asn 137 deamidation 1.2; percent of population: Met 248 oxidation 3.8; Asn 311 deamidation 7.1; Asn 380 deamidation 10.1; Asn 385 deamidation 1.5; Lys 443 clipped 97.1, Mixture; HMW 13.4%, basic peaks 13.6%) heavy: not shown light: DIQLTQSPSFLSAYVGDRVTITCKASQDVGTAVAWYQQKPGKAPKLLIYWASTLHTGVPSRFSGSGSGTEFTLTISSLQPEDFATYYCQHYSSYPWTFGQGTKLEIKRTVAAPSVFIFPPSDEQLKSGTASVVCLLNNFYPREAKVQWKVDNALQSGNSQESVTEQDSKDSTYSLSSTLTLSKADYEKHKVYACEVTHQGLSSPVTKSFNRGEC","Relative Potency, Cell-Based Bioassay",[4],109%
same,Kd,[6],2060 nM
same,"Relative Potency, MSD Binding",[7],99%
"Dostarlimab, AAPH treated, 40° C., 1 day (antibody, human IgG4 S228P, kappa, percent of population: Trp 50 oxidation 38.9; Asn 137 deamidation 1.2; percent of population: Met 103 oxidation 2.5; Met 248 oxidation 47.7; Asn 311 deamidation 6.5; Met 354 oxidation 8.2; Asn 380 deamidation 8.6; Asn 385 deamidation 1.3; Met 424 oxidation 26.2; Asn 430 deamidation 1.1; Lys 443 clipped 96.7, 5 mM AAPH; HMW 4.9%; also called AAPH, 40° C., 1 day; AAPH Day 1) heavy: not shown light: DIQLTQSPSFLSAYVGDRVTITCKASQDVGTAVAWYQQKPGKAPKLLIYWASTLHTGVPSRFSGSGSGTEFTLTISSLQPEDFATYYCQHYSSYPWTFGQGTKLEIKRTVAAPSVFIFPPSDEQLKSGTASVVCLLNNFYPREAKVQWKVDNALQSGNSQESVTEQDSKDSTYSLSSTLTLSKADYEKHKVYACEVTHQGLSSPVTKSFNRGEC",Kd,[9],2340 nM
same,"Relative Potency, MSD Binding",[10],76%
same,"Relative Potency, Cell-Based Bioassay",[11],44%
"Dostarlimab, thermally degraded, 40° C., 3 weeks (antibody, human IgG4 S228P, kappa, percent of population: Asp 151/167 isomerization 1.1; percent of population: Met 248 oxidation 5.4; Asp 261/266/276 isomerization 2.8; Asn 311 deamidation 6.5; Met 354 oxidation 1.9; Asn 380 deamidation 10.0; Asn 385 deamidation 2.1; Met 424 oxidation 1.7; Asn 430 deamidation 1.2; Lys 443 clipped 97.8, Mixture; HMW 1.4%, acidic peaks 33.8%) heavy: not shown light: DIQLTQSPSFLSAYVGDRVTITCKASQDVGTAVAWYQQKPGKAPKLLIYWASTLHTGVPSRFSGSGSGTEFTLTISSLQPEDFATYYCQHYSSYPWTFGQGTKLEIKRTVAAPSVFIFPPSDEQLKSGTASVVCLLNNFYPREAKVQWKVDNALQSGNSQESVTEQDSKDSTYSLSSTLTLSKADYEKHKVYACEVTHQGLSSPVTKSFNRGEC",Kd,[12],2250 nM
same,"Relative Potency, Cell-Based Bioassay",[13],94%
same,"Relative Potency, MSD Binding",[14],88%
